This passage reports Octet response (nm) results from patent US20260207732A1.

The target in experiment [1] is control (H1 Bri18 wild type HA ectodomain-foldon) (Influenza A virus A/Brisbane/02/2018 (H1N1)). Nature of the experiment: BLI (Octet), HA-foldon-His on Ni-NTA tips, IgG in solution. (In BLI a coated tip is dipped into the sample, and binding shifts an interference pattern.)
Experiment [2] shares this target. Nature of the experiment: BLI (Octet) after 7D37C and trypsin; HA on Ni-NTA tips.

Consider CR9114 monoclonal antibody (IgG), for which the Octet response (nm) in experiment [1] turned out to be 0.826 nm; in experiment [2] it was 0.693 nm.
The matching figures for FI6v3 monoclonal antibody (IgG): 0.856 nm and 0.697 nm.
